Laboratory results as given in article PMC3648548.

Biological target: GLIC NQN mutant (D91N, E177Q, D178N), pentameric ligand-gated ion channel from Gloeobacter violaceus (Gloeobacter violaceus)
Assay: crystal structure; GLIC-NQN mutant in 0.01% (w/v) n-tetradecyl-β-D-maltoside, ~10 mg/ml; crystallization conditions as for GLIC and GLIC-ketamine; molecular replacement with 4F8H; five subunits in the asymmetric unit

- stoichiometry N: 5
Substance: GLIC NQN mutant (D91N, E177Q, D178N), pentameric ligand-gated ion channel from Gloeobacter violaceus (natural protein)
